Here are results for five molecules from PMC3036652, “Functional Analysis of an Acid Adaptive DNA Adenine Methyltransferase from Helicobacter pylori 26695” (PLoS ONE, 2011).

One data set deals with T1, HP0593 MTase (Helicobacter pylori, UniProt O25315).
T1 construct: gene HP_0593; full-length, 1797 bp gene in pET14b (NdeI/BamHI), N-terminal His6 tag kept, E. coli BL21(DE3) pLysS; monomer and dimer in solution, functions as dimer
T1 sequence (O25315 1-598): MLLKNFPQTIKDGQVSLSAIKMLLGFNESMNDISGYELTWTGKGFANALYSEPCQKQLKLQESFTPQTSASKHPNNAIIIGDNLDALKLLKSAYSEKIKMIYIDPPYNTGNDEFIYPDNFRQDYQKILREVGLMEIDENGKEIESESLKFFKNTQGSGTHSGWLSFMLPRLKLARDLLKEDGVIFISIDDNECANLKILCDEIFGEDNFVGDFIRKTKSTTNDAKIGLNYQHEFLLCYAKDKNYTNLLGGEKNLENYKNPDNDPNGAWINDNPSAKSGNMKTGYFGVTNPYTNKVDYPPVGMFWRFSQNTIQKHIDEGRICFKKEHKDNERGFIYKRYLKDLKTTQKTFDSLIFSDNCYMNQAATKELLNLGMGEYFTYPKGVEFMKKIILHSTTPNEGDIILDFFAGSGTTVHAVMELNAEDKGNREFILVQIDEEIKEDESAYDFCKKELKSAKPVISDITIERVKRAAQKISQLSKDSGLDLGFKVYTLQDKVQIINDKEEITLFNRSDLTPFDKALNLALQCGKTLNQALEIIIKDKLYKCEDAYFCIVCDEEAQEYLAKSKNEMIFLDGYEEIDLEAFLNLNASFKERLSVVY
In words: EMSA of enzyme with […]-labelled duplex […] DNA. It is filed as binding. To be noted: on ice, no divalent metal, ternary complex with cognate DNA, indirect read-out.

Data set [1] deals with HP0593 DNA-(N6-adenine)-methyltransferase (Helicobacter pylori 26695). In words: SEC; reinjection of the dimer peak of the gel filtration; data not shown. For orientation: Size exclusion chromatography separates by hydrodynamic size, large species first.
The target is the same in data set [2]. In words: cross-linking.
Data set [3] has the same target. In words: SEC.
Data set [4] shares this target. In words: cross-linking; 0.06% and 0.08% glutaraldehyde-treated HP0593 MTase, products analysed by MALDI-MS; data not shown.
The target of data set [5] is T2, HP0593 DNA-(N6-adenine)-methyltransferase (HP0593 MTase) (Helicobacter pylori 26695, UniProt O25315 1-598).
T2 sequence: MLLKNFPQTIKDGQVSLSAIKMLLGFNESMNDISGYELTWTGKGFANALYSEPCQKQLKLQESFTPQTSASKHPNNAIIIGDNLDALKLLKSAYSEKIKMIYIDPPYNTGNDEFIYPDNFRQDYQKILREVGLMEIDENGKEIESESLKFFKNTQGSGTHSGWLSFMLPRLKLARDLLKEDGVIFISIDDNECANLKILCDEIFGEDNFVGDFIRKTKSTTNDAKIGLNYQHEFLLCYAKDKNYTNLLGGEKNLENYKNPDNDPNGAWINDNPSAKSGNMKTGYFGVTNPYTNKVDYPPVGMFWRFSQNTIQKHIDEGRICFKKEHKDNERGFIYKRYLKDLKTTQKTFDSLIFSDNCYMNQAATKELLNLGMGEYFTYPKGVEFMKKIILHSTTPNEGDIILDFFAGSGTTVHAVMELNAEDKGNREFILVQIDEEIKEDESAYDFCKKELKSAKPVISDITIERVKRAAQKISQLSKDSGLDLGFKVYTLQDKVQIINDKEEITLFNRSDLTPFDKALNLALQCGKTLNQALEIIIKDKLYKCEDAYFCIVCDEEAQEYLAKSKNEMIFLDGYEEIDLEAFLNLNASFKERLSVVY
In words: SPR; 1.0 mM MnCl2; EMSA: 10 mM potassium phosphate pH 5.5, 7 mM β-mercaptoethanol, 10% glycerol, no divalent metal, 10 min on ice, 0.5-5.0 µM protein, ~100 nM DNA, gel 0.5x TBE 4°C; SPR: 10 mM HEPES pH 7.4, 100 mM NaCl, 0.05% P-20, ±1.0 mM MnCl2, 25°C, 1:1 Langmuir global fit. To be noted: protein: recombinant; tags: N-terminal His6 (pET14b); label: 5' biotin on top strand, immobilized on SA chip; blunt. Background: Surface plasmon resonance follows binding to a sensor surface in real time, without labels.

Data set [6] addresses T2, HP0593 …. In words: EMSA; no cofactor; up to 3.0 µM protein; EMSA: 10 mM potassium phosphate pH 5.5, 7 mM β-mercaptoethanol, 10% glycerol, no divalent metal, 10 min on ice, 0.5-5.0 µM protein, ~100 nM DNA, gel 0.5x TBE 4°C; SPR: 10 mM HEPES pH 7.4, 100 mM NaCl, 0.05% P-20, ±1.0 mM MnCl2, 25°C, 1:1 Langmuir global fit. The note with it: protein: recombinant; tags: N-terminal His6 (pET14b); label: 32P; blunt. (In general: A gel shift assay detects complexes by their altered migration in electrophoresis.)

With `Nc1ncnc2c1ncn2[C@@H]1O[C@H](C[C@@H](N)CC[C@H](N)C(=O)O)[C@@H](O)[C@H]1O` [sinefungin], on HP0593 MTase (10 µM sinefungin, pH 5.5), the “EMSA of enzyme with 32P-labelled duplex 2 DNA” value is “which is stabilized by AdoHcy and in some extent by sinefungin”.
The term stoichiometry N denotes a count of units in the complex or per binding partner. As for “HP0593 DNA-(N6-adenine)-methyltransferase (enzyme)”, the stoichiometry N in data set [1], in data set [2], in data set [3] and in data set [4] was 2 each time.
On to `Nc1ncnc2c1ncn2[C@@H]1O[C@H](CSCC[C@H](N)C(=O)O)[C@@H](O)[C@H]1O` [AdoHcy], for which the “EMSA of enzyme with 32P-labelled duplex 2 DNA” value at HP0593 MTase (5 µM AdoHcy, 10 mM potassium phosphate pH 5.5) was “This suggested the formation of a stable ternary complex in the presence of AdoHcy”.

B1: duplex 18 (dsDNA)
DNA 1: GATCAATAGATGCGCAGATCATTTACATT
DNA 2: AATGTAAATGATCTGCGCATCTATTGATC
In general, Kd refers to a measure of binding affinity in units of concentration. Regarding B1, the Kd in data set [5] came out at 4.58 nM.

B2: duplex 19 (lacks GCAG) (dsDNA)
DNA 1: GATCAATAGATCCCCGGATCATTTACATT
DNA 2: AATGTAAATGATCCGGGGATCTATTGATC
Regarding B2, in data set [6], the binding result is on record as “no binding”.
